Our source for the protein stability index values is the supplement of paper PMC10567573.

± gives the standard deviation.

The nature of the data set: protein stability index of a GFP-peptide fusion (GPS, HEK-293T) (PSI 1-6); higher = more stable.
The mark [1] stands for this setting: treatment: DMSO, c terminus: a fixed tail appended.
Setting [2] is: treatment: MLN4924 1 uM, 8 h, c terminus: a fixed tail appended.
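Note: 24-mer peptide tiles fused after GFP, lentivirally expressed, FACS-sorted into six equal bins by GFP/DsRed ratio, decoded by Illumina sequencing, PSI is the read-weighted mean bin number.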

In the case of NGHDCWSLISLSNNTGKNLELKFV [TENT5D], the protein stability index was 2.51 ± 0.49 under setting [1] and 2.61 ± 1 under setting [2].

Turning to NGINLFDTAEVYAAGKAEVVLGNI [KCNAB2], the protein stability index was determined as 2.89 ± 0.3 under setting [1] and 3 ± 0.3 under setting [2].

Consider NGQLMAVGGFDGTTYLKTIEVFDP [KLHL20], for which the protein stability index amounted to 2.93 ± 0.072 under setting [1] and 2.91 ± 0.45 under setting [2].

As for NGSDPRSFPLWYEEALKDEEERAQ [MAGEA10], the protein stability index reads like this: under setting [1], 5.34 ± 0.36; under setting [2], 5.42 ± 0.2.

Turning to NHILECEFYLLELMDCCLIVYHPY [CCNC], the protein stability index reads like this: under setting [1], 3.12 ± 1; under setting [2], 2.78 ± 0.95.

With NISDLPFLAENSAFPKMALQAKQD [LCOR], the protein stability index by setting is: under setting [1], 4.42 ± 0.2; under setting [2], 4.39 ± 0.2.

Regarding NIVFGTGPRVGEALVSHPEVPLIS [ALDH8A1], the protein stability index is 2.9 ± 0.21 under setting [1] and 2.83 ± 0.27 under setting [2].

As for NIWVCYASYVVFRIIYMLLITIAT [SLC19A2], the protein stability index runs as follows: under setting [1], 3.41 ± 0.35; under setting [2], 3.14 ± 0.88.

Take NKLWELCCQWLKPKMRSKEQILEL [ZNF449]: the protein stability index reads like this: under setting [1], 2.62 ± 0.35; under setting [2], 2.9 ± 0.56.

In turn, NKRERSKLKNLRRKQRRRERWLQK [RNF180] returned a protein stability index under setting [1] of 4.32 ± 0.24 and a protein stability index under setting [2] of 4.49 ± 0.38.

Consider NKTKPIWTRNPDDITQEEYGEFYK [HSP90AB1], for which the protein stability index is 4.36 ± 0.42 under setting [1] and 4.49 ± 0.44 under setting [2].

Consider NKVKVLDAPVPDCLGVHCDFHQGL [FSD1], for which the protein stability index reads like this: under setting [1], 3.26 ± 0.078; under setting [2], 3.43 ± 0.24.

In the case of NLASYDVCSILLGTSTLLVWVGVI [MCOLN1], the protein stability index is, setting by setting: under setting [1], 3.08 ± 0.6; under setting [2], 3.19 ± 0.7.

Turning to NLLGEAAGGQDMADSMLMQGSRGL [HDAC6], the protein stability index runs as follows: under setting [1], 4.1 ± 0.34; under setting [2], 4.09 ± 0.081.

NLSKSRKILRSMSRKVTTNKLLLS [VTI1B]: the protein stability index worked out at 2.85 ± 0.35 under setting [1] and 2.92 ± 0.29 under setting [2].

For the sequence NNFDNLDFDLDLVPWESDIWDINN [ATF6], the protein stability index worked out at 3.2 ± 0.21 under setting [1] and 3.46 ± 0.11 under setting [2].

On to NQAPSGPVASSGEFFGSASQPAVE [CLINT1], for which the protein stability index under setting [1] was 5.16 ± 0.24 and the protein stability index under setting [2] amounted to 5.24 ± 0.43.

Turning to NRGNSAGGLQHRVTAKTAPDVLRT [PTPRD], the protein stability index is, setting by setting: under setting [1], 3.98 ± 0.47; under setting [2], 3.81 ± 0.31.

As to NRILAERIAKEIQVIPLQRDDED [IMPA1], the protein stability index runs as follows: (treatment: DMSO, c terminus: native) 3.47 ± 0.1; (treatment: MLN4924 1 uM, 8 h, c terminus: native) 3.65 ± 0.12.

As to NSAHHCVVEVENFLFVLGGEDQWN [KLHL14], the protein stability index reads like this: under setting [1], 2.12 ± 0.27; under setting [2], 2.07 ± 0.3.

For NSPLHIAALNNHPDIMNLLIKSGA [FEM1C], the protein stability index came out at 2.54 ± 0.1 under setting [1] and 2.78 ± 0.12 under setting [2].

As to NVNRTTANNDHTVLSLACAGGHLA [ANKRD17], the protein stability index is 3.57 ± 0.3 under setting [1] and 3.7 ± 0.36 under setting [2].

Turning to NWLGRPSKVLSLQDLCCRTIVSCT [RAB40A], the protein stability index is, setting by setting: under setting [1], 2.74 ± 0.08; under setting [2], 2.88 ± 0.44.

As for NWLHRRLAGQFLEELRKFSSLCYK [MOG], the protein stability index by setting is: under setting [1], 2.5 ± 0.15; under setting [2], 2.57 ± 0.27.

With PASAPGEPRQRRLLLLDLLALYTP [ANKRD9], the protein stability index runs as follows: under setting [1], 2.25 ± 0.071; under setting [2], 2.02 ± 0.48.

Consider PCGPNMSEVSCKKRDDYLEWPEYF [DCTD], for which the protein stability index under setting [1] amounted to 3.56 ± 0.23 and the protein stability index under setting [2] came out at 3.6 ± 0.26.

For PCSPDSSSVCVQGRCIHAGCDRII [ADAMTS4], the protein stability index came out at 3.84 ± 0.58 under setting [1] and 3.67 ± 0.25 under setting [2].

PCVAESPTVHVEVHQRGSSTAKKE [TRIP13]: the protein stability index by setting is: under setting [1], 5.42 ± 0.39; under setting [2], 5.35 ± 0.087.

Regarding PDFNPEKHGSLNRYHNSHPLRERA [YJU2B], the protein stability index worked out at 4.36 ± 0.21 under setting [1] and 4.37 ± 0.29 under setting [2].

Turning to PDKKKRPRRSLSISKNKKKASNSI [FAN1], the protein stability index reads like this: under setting [1], 4.56 ± 0.2; under setting [2], 4.76 ± 0.068.

With PDMETKLLFMTSRVRFGQQKRYQD [INTS3], the protein stability index reads like this: under setting [1], 2.92 ± 0.24; under setting [2], 3.09 ± 0.32.

With PDQAYDFLLKFLLVGDRDVGKSEI [RAB40A], the protein stability index reads like this: under setting [1], 2.46 ± 0.39; under setting [2], 2.35 ± 0.3.

Consider PEHGDRVAELFCRRCRRCVCALCP [TRIM14], for which the protein stability index under setting [1] worked out at 3.29 ± 0.55 and the protein stability index under setting [2] came to 3.5 ± 0.1.

With PELTPEEEQATKQFLEEINKWTVQ [PTPN9], the protein stability index is, setting by setting: under setting [1], 5.01 ± 0.23; under setting [2], 4.86 ± 0.12.

For PEMNGNGAVAPMDFTTAAEDQPIN [NOL4L], the protein stability index runs as follows: under setting [1], 5.35 ± 0.26; under setting [2], 5.47 ± 0.15.

PEYTYGISNIDTTIEGTSDDLTVV [MFF]: the protein stability index is, setting by setting: under setting [1], 4.61 ± 0.15; under setting [2], 4.56 ± 0.078.

Regarding PGGLVGSADVVSPSGHSDAQTLAM [PPFIA4], the protein stability index runs as follows: under setting [1], 4.57 ± 0.22; under setting [2], 4.43 ± 0.93.

Turning to PGKINCLRNCKTYQARKPLWFYNT [RHOBTB3], the protein stability index worked out at 2.59 ± 0.41 under setting [1] and 2.76 ± 0.47 under setting [2].

With PHRVLETRGHAISILFGFWTSFIC [SMIM2], the protein stability index runs as follows: under setting [1], 2.46 ± 0.41; under setting [2], 2.32 ± 0.18.

Take PIIYFNDYWNLQKDYYPINESLAS [CLPTM1]: the protein stability index reads like this: under setting [1], 2.71 ± 0.85; under setting [2], 2.06 ± 0.2.

PILQEGMDEEKLKQLNCVEISALN [DLC1]: the protein stability index under setting [1] was found to be 5.08 ± 0.15 and the protein stability index under setting [2] worked out at 4.87 ± 0.15.

PILSRSTSTGSAASSGSNSSASSE [SPRY1] returned a protein stability index under setting [1] of 5.42 ± 0.22 and a protein stability index under setting [2] of 5.44 ± 0.19.

With PKPEPPQLVLAYDYSREVNTTEEL [FEM1A], the protein stability index by setting is: under setting [1], 5.03 ± 0.19; under setting [2], 4.94 ± 0.31.

Regarding PKTNEDFEFLYNALEFWRQEELTR [IQUB], the protein stability index by setting is: under setting [1], 2.63 ± 0.31; under setting [2], 2.23 ± 0.43.

PLDAGEYCVPRGNRRRFRVRQPIL [BEX1]: the protein stability index was 3.47 ± 0.42 under setting [1] and 3.63 ± 0.25 under setting [2].

Consider PLGAGNLGPELIKESNANPIFMRK [DPCD], for which the protein stability index under setting [1] was 4.34 ± 0.27 and the protein stability index under setting [2] was determined as 4.54 ± 0.23.

For PLLPPAMGTEPAPSAPEALHSLPG [TBX6], the protein stability index came out at 5.07 ± 0.074 under setting [1] and 5.06 ± 0.16 under setting [2].

In the case of PLWPGKSDVDQLYLIIRTLGKLIP [CDKL4], the protein stability index by setting is: under setting [1], 3.04 ± 0.39; under setting [2], 2.34 ± 0.61.

Turning to PNEAMVVSGFCRSPPVMVAGGRVF [FLOT1], the protein stability index runs as follows: under setting [1], 2.2 ± 0.2; under setting [2], 2.42 ± 0.26.

Turning to PNILFYASTVLKSVGFQSNEAASL [SLC2A12], the protein stability index by setting is: under setting [1], 2.25 ± 0.33; under setting [2], 2.38 ± 0.15.

Take PPRTIKRTRRRLSRNRDPGRLILS [PWWP2B]: the protein stability index is 4.37 ± 0.27 under setting [1] and 4.52 ± 0.35 under setting [2].

Take PPSALDQLSRLNITYPMLFKLTNK [UFD1]: the protein stability index was found to be 2.48 ± 0.27 under setting [1] and 2.96 ± 0.095 under setting [2].

On to PPTINGIKGLQRKERLKPAHIHLQ [KRT34], for which the protein stability index reads like this: under setting [1], 3.34 ± 0.15; under setting [2], 3.59 ± 0.46.

In turn, PPVTDLGELRRRPGDMKTKMELLI [CPOX] came in with a protein stability index under setting [1] of 3.2 ± 0.36 and a protein stability index under setting [2] of 3.03 ± 0.3.

On to PRPRPVSLSLRLPHQPVTAITRVS [SMTNL2], for which the protein stability index turned out to be 3.42 ± 0.24 under setting [1] and 3.58 ± 0.27 under setting [2].

For PRRCHSAPPQGSCGDELPWTLQRR [PLEKHN1], the protein stability index under setting [1] was 4.79 ± 0.15 and the protein stability index under setting [2] was found to be 4.7 ± 0.23.

Take PRRVCVGGKRRRDDISVDSLDFTK [PPP2R2C]: the protein stability index is 3.79 ± 0.16 under setting [1] and 3.9 ± 0.38 under setting [2].

Take PRSHFTTPAPMSSAWKTVACGGTR [MYBL2]: the protein stability index by setting is: under setting [1], 2.77 ± 0.32; under setting [2], 2.84 ± 0.17.

For the sequence PRTNEWTYVAKMSEPHYGHAGTVY [KLHL13], the protein stability index is, setting by setting: under setting [1], 2.44 ± 0.21; under setting [2], 2.61 ± 0.24.

For PSPEPAGRRAALYVHWPYCEKRCS [RSAD1], the protein stability index was determined as 2.78 ± 0.26 under setting [1] and 3.02 ± 0.41 under setting [2].

PTLAKFSPYLGQMINLRRLLLSHI [PRAME]: the protein stability index runs as follows: under setting [1], 2.33 ± 0.42; under setting [2], 2.15 ± 0.11.

Consider PTLWTEQVKSRQNKTNKNSVSSCD [SMOC2], for which the protein stability index under setting [1] is 4.81 ± 0.28 and the protein stability index under setting [2] amounted to 4.84 ± 0.12.

Take PTSPVQGTTPQISPSTLIGSLRTL [HDAC6]: the protein stability index came out at 3.77 ± 0.22 under setting [1] and 3.79 ± 0.26 under setting [2].

In the case of PVAMRVAKLAINQGMEVDLVTGLA [AUH], the protein stability index under setting [1] amounted to 2.65 ± 0.29 and the protein stability index under setting [2] was determined as 2.92 ± 0.5.

For the sequence PVENIPEIILYWKHSTIFDVGENL [SLC25A25], the protein stability index under setting [1] came to 2.37 ± 0.41 and the protein stability index under setting [2] turned out to be 2.02 ± 0.44.

Turning to PVESHIQKNKKILKSAKDLPPDAL [KMT2E], the protein stability index stood at 4.86 ± 0.24 under setting [1] and 4.71 ± 0.44 under setting [2].

As to PVSGKAVFMEFGPPNQQMSPSPMS [DLX1], the protein stability index is, setting by setting: under setting [1], 3.5 ± 0.26; under setting [2], 3.55 ± 0.41.

Take PYARIQQSRRQCHAEEDQSQVPEA [SMIM2]: the protein stability index by setting is: under setting [1], 5.3 ± 0.19; under setting [2], 5.19 ± 0.14.

QALEQFAAAAAHSTPVRREVTDKE [EPB41L3]: the protein stability index runs as follows: under setting [1], 5.02 ± 0.22; under setting [2], 4.89 ± 0.41.

For the sequence QDDSKPTQRQFTILNFNDLMSSAV [AASDHPPT], the protein stability index stood at 2.86 ± 0.31 under setting [1] and 2.97 ± 0.28 under setting [2].

Sequence QEAPLQDDSCLNNDIPHSIPLEQG [FAN1] registered a protein stability index under setting [1] of 5.25 ± 0.34 and a protein stability index under setting [2] of 5.27 ± 0.17.

Regarding QERSRVLNQVADLLEQSLEEFAQA [ALDH8A1], the protein stability index reads like this: under setting [1], 3.94 ± 0.28; under setting [2], 4.26 ± 0.19.
